These results are taken from US9260500B2, “Peptide and use thereof” (Takeda Pharmaceutical Company Limited, priority 2009, dated 2016).

For assay [1], the target named is T1, human Y2 receptor (Homo sapiens, UniProt P49146).
T1 construct: expressed in transfected cells; membrane fraction
T1 sequence (P49146 1-381): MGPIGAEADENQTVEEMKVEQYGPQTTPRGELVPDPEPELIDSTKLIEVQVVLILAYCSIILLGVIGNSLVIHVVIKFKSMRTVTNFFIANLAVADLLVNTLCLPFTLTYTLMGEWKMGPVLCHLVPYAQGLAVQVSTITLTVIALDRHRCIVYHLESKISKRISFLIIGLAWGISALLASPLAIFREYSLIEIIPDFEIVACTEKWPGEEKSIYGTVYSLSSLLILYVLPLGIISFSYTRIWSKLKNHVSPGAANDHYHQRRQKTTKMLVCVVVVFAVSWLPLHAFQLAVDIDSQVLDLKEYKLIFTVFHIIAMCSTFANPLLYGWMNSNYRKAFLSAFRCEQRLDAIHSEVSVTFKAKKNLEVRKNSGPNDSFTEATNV
The assay can be described thus: Receptor Binding Assay (RBA) for Human Y2, [125I]-PYY displacement on hY2R/CHO membrane fraction. The following applies: IC50 of test compound/IC50 of PYY(3-36) (PYY(3-36) taken as 1). Summed up:
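hY2R stably expressed in CHO/dhfr− cells; membrane fraction prepared from cells disrupted in 10 mM NaHCO3, 5 mM EDTA buffer with protease inhibitors. Binding read as displacement of [125I]-PYY.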

The target of assay [2] is T1, human Y2 receptor. Nature of the assay: Human Y2 Receptor G Protein Binding Assay (GBA), [35S]GTPγS. The assay is classed as biochemical. The following applies: EC50 of test compound/EC50 of PYY(3-36) (PYY3-36 taken as 1), hY2R/CHO membrane fraction. Summed up: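 Agonism measured as [35S]GTPγS binding, read by GF/C filtration and scintillation counting after 120 min at room temperature, using human Y2 membranes at 1 μg protein/mL in pH 7.4 Tris/MgCl2/NaCl/GDP buffer. Compound serially diluted 100 μM–1 nM; EC50 normalized to PYY(3-36) (ratio = compound/PYY).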
A general note: Binding of GTPγS marks nucleotide exchange on a G protein.

Non-standard residues stand in square brackets, D forms with d. No end group written: not given here. *: point of attachment. 1Nal = N[C@@H](Cc1cccc2ccccc12)C(=O)O; Lys(Me2) = CN(C)CCCC[C@H](N)C(=O)O; Ala(cPr) = N[C@@H](CC1CC1)C(=O)O; 4Pal = N[C@@H](Cc1ccncc1)C(=O)O; dHyp = O=C(O)[C@H]1C[C@H](O)CN1; Cha = N[C@@H](CC1CCCCC1)C(=O)O; dPip = O=C(O)[C@H]1CCCCN1; Isobutyryl = CC(C)C(=O)*; Iva = CC[C@](C)(N)C(=O)O; Abu = CC[C@H](N)C(=O)O; Nleu = CC(C)CNCC(=O)O; Aib = CC(C)(N)C(=O)O

With “[D-Ser23, Abu26, Cha27,28,36, Aib31]-PYY(23-36) ([dS]LR[Abu][Cha][Cha]NL[Aib]TRQR[Cha]-NH2; N-terminus assumed; SMILES CC[C@H](NC(=O)[C@H](CCCNC(=N)N)NC(=O)[C@H](CC(C)C)NC(=O)[C@H](N)CO)C(=O)N[C@@H](CC1CCCCC1)C(=O)N[C@@H](CC1CCCCC1)C(=O)N[C@@H](CC(N)=O)C(=O)N[C@@H](CC(C)C)C(=O)NC(C)(C)C(=O)N[C@H](C(=O)N[C@@H](CCCNC(=N)N)C(=O)N[C@@H](CCC(N)=O)C(=O)N[C@@H](CCCNC(=N)N)C(=O)N[C@@H](CC1CCCCC1)C(N)=O)[C@@H](C)O) [compound No. 85]”, the “RBA IC50 Ratio” value with human Y2 receptor [1] turned out to be 15. Further, the “GBA EC50 Ratio” value in the assay with human Y2 receptor [2] is reported as 11.
As to “Ac-[D-Pic(2)24, Cha27,28,36, Aib31]-PYY(23-36) (Ac-S[dPip]RH[Cha][Cha]NL[Aib]TRQR[Cha]-NH2; SMILES CC(=O)N[C@@H](CO)C(=O)N1CCCC[C@@H]1C(=O)N[C@@H](CCCNC(=N)N)C(=O)N[C@@H](Cc1c[nH]cn1)C(=O)N[C@@H](CC1CCCCC1)C(=O)N[C@@H](CC1CCCCC1)C(=O)N[C@@H](CC(N)=O)C(=O)N[C@@H](CC(C)C)C(=O)NC(C)(C)C(=O)N[C@H](C(=O)N[C@@H](CCCNC(=N)N)C(=O)N[C@@H](CCC(N)=O)C(=O)N[C@@H](CCCNC(=N)N)C(=O)N[C@@H](CC1CCCCC1)C(N)=O)[C@@H](C)O) [compound No. 119]”, in the assay with human Y2 receptor [1], the “RBA IC50 Ratio” value was determined as 9.9. Moreover, the “GBA EC50 Ratio” value with human Y2 receptor [2] is given as 5.8.
For “Ac-[Lys(Me2)23, D-Pro24, Cha27,28,36, Aib31]-PYY(23-36) (Ac-[Lys(Me2)][dP]RH[Cha][Cha]NL[Aib]TRQR[Cha]-NH2; SMILES CC(=O)N[C@@H](CCCCN(C)C)C(=O)N1CCC[C@@H]1C(=O)N[C@@H](CCCNC(=N)N)C(=O)N[C@@H](Cc1c[nH]cn1)C(=O)N[C@@H](CC1CCCCC1)C(=O)N[C@@H](CC1CCCCC1)C(=O)N[C@@H](CC(N)=O)C(=O)N[C@@H](CC(C)C)C(=O)NC(C)(C)C(=O)N[C@H](C(=O)N[C@@H](CCCNC(=N)N)C(=O)N[C@@H](CCC(N)=O)C(=O)N[C@@H](CCCNC(=N)N)C(=O)N[C@@H](CC1CCCCC1)C(N)=O)[C@@H](C)O) [compound No. 160]” the same measures were 0.92 and 1.3.
The like results for “Ac-[Gln23, D-Pro24, Pya(4)26, Cha27,36, Aib28,31, Lys30]-PYY(23-36) (Ac-Q[dP]R[4Pal][Cha][Aib]NK[Aib]TRQR[Cha]-NH2; SMILES CC(=O)N[C@@H](CCC(N)=O)C(=O)N1CCC[C@@H]1C(=O)N[C@@H](CCCNC(=N)N)C(=O)N[C@@H](Cc1ccncc1)C(=O)N[C@@H](CC1CCCCC1)C(=O)NC(C)(C)C(=O)N[C@@H](CC(N)=O)C(=O)N[C@@H](CCCCN)C(=O)NC(C)(C)C(=O)N[C@H](C(=O)N[C@@H](CCCNC(=N)N)C(=O)N[C@@H](CCC(N)=O)C(=O)N[C@@H](CCCNC(=N)N)C(=O)N[C@@H](CC1CCCCC1)C(N)=O)[C@@H](C)O) [compound No. 210]” were, in that order, 1.3 and 0.9.
For “Ac-[Thr23, D-Pro24, Pya(4)26, Cha27,36, Aib28,31, Lys30]-PYY(23-36) (Ac-T[dP]R[4Pal][Cha][Aib]NK[Aib]TRQR[Cha]-NH2; SMILES CC(=O)N[C@H](C(=O)N1CCC[C@@H]1C(=O)N[C@@H](CCCNC(=N)N)C(=O)N[C@@H](Cc1ccncc1)C(=O)N[C@@H](CC1CCCCC1)C(=O)NC(C)(C)C(=O)N[C@@H](CC(N)=O)C(=O)N[C@@H](CCCCN)C(=O)NC(C)(C)C(=O)N[C@H](C(=O)N[C@@H](CCCNC(=N)N)C(=O)N[C@@H](CCC(N)=O)C(=O)N[C@@H](CCCNC(=N)N)C(=O)N[C@@H](CC1CCCCC1)C(N)=O)[C@@H](C)O)[C@@H](C)O) [compound No. 211]” the same measures were 1.1 and 0.69.
With “Ac-[D-Pro24, Pya(4)26, Cha27,36, Aib28,31, Lys30]-PYY(22-36) (Ac-AS[dP]R[4Pal][Cha][Aib]NK[Aib]TRQR[Cha]-NH2; SMILES CC(=O)N[C@@H](C)C(=O)N[C@@H](CO)C(=O)N1CCC[C@@H]1C(=O)N[C@@H](CCCNC(=N)N)C(=O)N[C@@H](Cc1ccncc1)C(=O)N[C@@H](CC1CCCCC1)C(=O)NC(C)(C)C(=O)N[C@@H](CC(N)=O)C(=O)N[C@@H](CCCCN)C(=O)NC(C)(C)C(=O)N[C@H](C(=O)N[C@@H](CCCNC(=N)N)C(=O)N[C@@H](CCC(N)=O)C(=O)N[C@@H](CCCNC(=N)N)C(=O)N[C@@H](CC1CCCCC1)C(N)=O)[C@@H](C)O) [compound No. 219]”, the “RBA IC50 Ratio” value with human Y2 receptor [1] is given as 2.3. In addition, in the assay with human Y2 receptor [2], the “GBA EC50 Ratio” value worked out at 1.7.
The like results for “Isobutanoyl-[Abu26, Cha27,28,36, Ala(cPr)30, Aib31]-PYY(25-36) (Isobutyryl-R[Abu][Cha][Cha]N[Ala(cPr)][Aib]TRQR[Cha]-NH2; SMILES CC[C@H](NC(=O)[C@H](CCCNC(=N)N)NC(=O)C(C)C)C(=O)N[C@@H](CC1CCCCC1)C(=O)N[C@@H](CC1CCCCC1)C(=O)N[C@@H](CC(N)=O)C(=O)N[C@@H](CC1CC1)C(=O)NC(C)(C)C(=O)N[C@H](C(=O)N[C@@H](CCCNC(=N)N)C(=O)N[C@@H](CCC(N)=O)C(=O)N[C@@H](CCCNC(=N)N)C(=O)N[C@@H](CC1CCCCC1)C(N)=O)[C@@H](C)O) [compound No. 80]” were, in that order, 17 and 12.
“Ac-[Glu23, D-Hyp24, Pya(4)26, Cha27,36, Aib28,31, Lys30]-PYY(23-36) (Ac-E[dHyp]R[4Pal][Cha][Aib]NK[Aib]TRQR[Cha]-NH2; SMILES CC(=O)N[C@@H](CCC(=O)O)C(=O)N1C[C@@H](O)C[C@@H]1C(=O)N[C@@H](CCCNC(=N)N)C(=O)N[C@@H](Cc1ccncc1)C(=O)N[C@@H](CC1CCCCC1)C(=O)NC(C)(C)C(=O)N[C@@H](CC(N)=O)C(=O)N[C@@H](CCCCN)C(=O)NC(C)(C)C(=O)N[C@H](C(=O)N[C@@H](CCCNC(=N)N)C(=O)N[C@@H](CCC(N)=O)C(=O)N[C@@H](CCCNC(=N)N)C(=O)N[C@@H](CC1CCCCC1)C(N)=O)[C@@H](C)O) [compound No. 208]”: in the assay with human Y2 receptor [1], the “RBA IC50 Ratio” value came to 3.4. The “GBA EC50 Ratio” value with human Y2 receptor [2] stood at 2.2.
Consider “Ac-[N(iBu)Gly24, Cha27,28,36, Aib31]-PYY(23-36) (Ac-S[Nleu]RH[Cha][Cha]NL[Aib]TRQR[Cha]-NH2; SMILES CC(=O)N[C@@H](CO)C(=O)N(CC(=O)N[C@@H](CCCNC(=N)N)C(=O)N[C@@H](Cc1c[nH]cn1)C(=O)N[C@@H](CC1CCCCC1)C(=O)N[C@@H](CC1CCCCC1)C(=O)N[C@@H](CC(N)=O)C(=O)N[C@@H](CC(C)C)C(=O)NC(C)(C)C(=O)N[C@H](C(=O)N[C@@H](CCCNC(=N)N)C(=O)N[C@@H](CCC(N)=O)C(=O)N[C@@H](CCCNC(=N)N)C(=O)N[C@@H](CC1CCCCC1)C(N)=O)[C@@H](C)O)CC(C)C) [compound No. 108]”, for which the “RBA IC50 Ratio” value with human Y2 receptor [1] is 20. In addition, in the assay with human Y2 receptor [2], the “GBA EC50 Ratio” value was 8.4.
For the substance “Ac-[D-Pro24, Ala(4Pip)25, Pya(4)26, Cha27,36, Aib28,31, Lys30]-PYY(23-36) [compound No. 311] (Ac-S[dP][Ala(4Pip)][4Pal][Cha][Aib]NK[Aib]TRQR[Cha]-NH2; also: Ala(4Pip) configuration not fixed (D or L), former peak)”, in the assay with human Y2 receptor [1], the “RBA IC50 Ratio” value turned out to be 18. Moreover, the “GBA EC50 Ratio” value in the assay with human Y2 receptor [2] is 14.
The like results for “Ac-[D-Pro24, Pya(4)26, Nal(1)27, Aib28,31, Lys30, Cha36]-PYY(23-36) (Ac-S[dP]R[4Pal][1Nal][Aib]NK[Aib]TRQR[Cha]-NH2; SMILES CC(=O)N[C@@H](CO)C(=O)N1CCC[C@@H]1C(=O)N[C@@H](CCCNC(=N)N)C(=O)N[C@@H](Cc1ccncc1)C(=O)N[C@@H](Cc1cccc2ccccc12)C(=O)NC(C)(C)C(=O)N[C@@H](CC(N)=O)C(=O)N[C@@H](CCCCN)C(=O)NC(C)(C)C(=O)N[C@H](C(=O)N[C@@H](CCCNC(=N)N)C(=O)N[C@@H](CCC(N)=O)C(=O)N[C@@H](CCCNC(=N)N)C(=O)N[C@@H](CC1CCCCC1)C(N)=O)[C@@H](C)O) [compound No. 306]” were, in that order, 2.9 and 1.7.
The like results for “Ac-[D-Pro24, Cha27,28,36, Iva30, Aib31]-PYY(23-36) (Ac-S[dP]RH[Cha][Cha]N[Iva][Aib]TRQR[Cha]-NH2; SMILES CC[C@](C)(NC(=O)[C@H](CC(N)=O)NC(=O)[C@H](CC1CCCCC1)NC(=O)[C@H](CC1CCCCC1)NC(=O)[C@H](Cc1c[nH]cn1)NC(=O)[C@H](CCCNC(=N)N)NC(=O)[C@H]1CCCN1C(=O)[C@H](CO)NC(C)=O)C(=O)NC(C)(C)C(=O)N[C@H](C(=O)N[C@@H](CCCNC(=N)N)C(=O)N[C@@H](CCC(N)=O)C(=O)N[C@@H](CCCNC(=N)N)C(=O)N[C@@H](CC1CCCCC1)C(N)=O)[C@@H](C)O) [compound No. 202]” were, in that order, 43 and 20.
